Test results: paper PMC11957191

Columns and labels:
[1] = biological target: myristoylated human Arf1 (myrArf1), GTP-bound form at a membrane surface (human) (UniProt P84077); test: not stated; binding test of the K391A mutant shown in Fig. SI5; method not given
[2] = biological target: myristoylated human Arf1 (myrArf1), GTP-bound form at a membrane surface (human) (UniProt P84077)
[3] = biological target: myrArf1 with Glu54 mutated to Ala (human) (UniProt P84077)
[4] = biological target: myristoylated human Arf1 (myrArf1), GTP-bound form at a membrane surface (human) (UniProt P84077); remark: listed apart in the source

myristoylated human Arf1 (myrArf1), GTP-bound form at a membrane surface (human), sequence (P84077 whole entry): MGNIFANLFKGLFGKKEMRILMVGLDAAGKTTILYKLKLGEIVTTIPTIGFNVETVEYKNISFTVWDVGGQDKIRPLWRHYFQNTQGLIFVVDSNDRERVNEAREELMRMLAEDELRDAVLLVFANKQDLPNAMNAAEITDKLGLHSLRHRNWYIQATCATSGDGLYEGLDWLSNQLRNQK
ΔN14PZA, ASAP1 PZA without residues 325–338, sequence (Q9QWY8 339-724, stated change not applied): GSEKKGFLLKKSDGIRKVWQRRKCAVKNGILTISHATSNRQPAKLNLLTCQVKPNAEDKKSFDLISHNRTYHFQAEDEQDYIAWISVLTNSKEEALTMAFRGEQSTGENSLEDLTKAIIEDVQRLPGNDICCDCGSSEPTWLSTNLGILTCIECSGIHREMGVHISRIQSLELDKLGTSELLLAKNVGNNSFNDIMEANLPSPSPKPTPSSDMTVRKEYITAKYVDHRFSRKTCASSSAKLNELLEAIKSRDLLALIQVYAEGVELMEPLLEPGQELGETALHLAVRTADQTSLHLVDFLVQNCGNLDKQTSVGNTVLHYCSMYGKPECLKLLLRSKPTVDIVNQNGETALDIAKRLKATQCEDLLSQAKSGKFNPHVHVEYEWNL
wt PZA, [325–724]ASAP1 (PH domain, Arf GAP zinc-binding domain and ankyrin repeats), sequence (Q9QWY8 325-724): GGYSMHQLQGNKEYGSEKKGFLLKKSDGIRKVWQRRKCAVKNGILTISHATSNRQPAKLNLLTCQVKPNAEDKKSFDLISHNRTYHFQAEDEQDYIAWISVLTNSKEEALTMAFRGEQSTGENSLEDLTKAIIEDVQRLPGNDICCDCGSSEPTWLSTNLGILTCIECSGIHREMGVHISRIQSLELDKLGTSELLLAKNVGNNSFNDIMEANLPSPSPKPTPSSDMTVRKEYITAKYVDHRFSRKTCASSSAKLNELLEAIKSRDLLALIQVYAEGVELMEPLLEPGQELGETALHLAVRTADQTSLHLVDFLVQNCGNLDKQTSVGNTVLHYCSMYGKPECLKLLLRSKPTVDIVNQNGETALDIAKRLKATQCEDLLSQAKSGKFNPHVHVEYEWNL
ASAP1 PZA with Phe438 mutated to Ala, sequence (Q9QWY8 other isoform, or with tags, fused parts or gaps, change not shown): as the sequence (Q9QWY8 325-724) above, with F114A counted along it
ASAP1 PZA with His405 mutated to Glu, sequence (Q9QWY8 other isoform, or with tags, fused parts or gaps, change not shown): as the sequence (Q9QWY8 325-724) above, with H81E counted along it
ASAP1 PZA with Lys391 mutated to Ala, sequence (Q9QWY8 other isoform, or with tags, fused parts or gaps, change not shown): as the sequence (Q9QWY8 325-724) above, with K67A counted along it
myrArf1 with Glu54 mutated to Ala (human), sequence (P84077 other isoform, or with tags, fused parts or gaps, change not shown): as the sequence (P84077 whole entry) above, with E54A counted along it

Substance	ArfGAP activity (C50 of PZA for 50% GTP hydrolysis in 3 min), fold reduction against wild type [2] [fold]	other results
ASAP1 PH domain with Lys391 mutated to Ala (from UniProt Q9QWY8 325-451) (domain or fragment)	–	fold reduction of binding against wild type [1]: 2 fold
ASAP1 PZA with His405 mutated to Glu (from UniProt Q9QWY8 325-724) (domain or fragment)	5	–
ASAP1 PZA with Lys391 mutated to Ala (from UniProt Q9QWY8 325-724) (domain or fragment)	100	–
ASAP1 PZA with Phe438 mutated to Ala (from UniProt Q9QWY8 325-724) (domain or fragment)	15	–
wt PZA, [325–724]ASAP1 (PH domain, Arf GAP zinc-binding domain and ankyrin repeats) (from UniProt Q9QWY8 325-724) (domain or fragment)	–	ArfGAP activity (C50 of PZA for 50% GTP hydrolysis in 3 min), fold reduction against wild type [3]: 70 fold
ΔN14PZA, ASAP1 PZA without residues 325–338 (from UniProt Q9QWY8 339-724) (domain or fragment)	–	GAP activity on myrArf1·GTP relative to wt PZA (fold of wt PZA) [4]: < 0.01
